{"source": "patent US20240254220A1", "about": "“COMBINED THERAPY USING ANTI-CD300C ANTIBODY” (CentricsBio, Inc., priority 2021, published 2024)", "molecules": {"B1": {"name": "CL8: anti-CD300c monoclonal antibody, VH3VL1 phage library, VH SEQ ID 331, VL SEQ ID 332 (antibody, V domains shown)", "VH": "EVQLLESGGGLVQPGGSLRLSCAASGFTFSSYAMSWVRQAPGKGLEWVSAISGSGGSTYYADSVKGRFTISRNNSKNTLYLQMNSLRAEDTAVYYCARSGRYADLTSGGQGTLVTVSS", "VL": "QSVLTQPPSASGTPGQRVTISCSGSNSNIGNNYVSWYQQLPDTPPKLLIYDNNKRPSGVPDRFSGSKSGTSASLAISGLRSEDEADYYCSSYTSSSTVMFGGGTKLTVL", "modifications": "CL8 Heavy Chain Variable Region; CL8 Light Chain Variable Region"}}, "biological_target": "T1, CD300c antigen (Homo sapiens, UniProt Q08708)", "T1 construct": "purchased Sino Biological 11832-H08H", "T1 sequence (Q08708 21-183)": "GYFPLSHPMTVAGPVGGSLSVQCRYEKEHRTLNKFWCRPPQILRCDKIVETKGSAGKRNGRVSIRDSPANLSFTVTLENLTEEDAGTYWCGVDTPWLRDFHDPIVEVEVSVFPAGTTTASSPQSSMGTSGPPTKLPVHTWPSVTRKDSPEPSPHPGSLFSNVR", "experiment": "Binding ELISA of anti-CD300c monoclonal antibodies to CD300c antigen", "settings": "CD300c antigen coated at 8 μg/mL, absorbance 450 nm", "protocol": "In order to identify the antigen-binding ability of the anti-CD300c monoclonal antibodies produced in Example 1, binding ELISA was performed. Specifically, a CD300c antigen (11832-H08H, Sino Biological) or a CD300a antigen (12449-H08H, Sino Biological) in a coating buffer (0.1 M sodium carbonate, pH 9.0) was dispensed into an ELISA plate at a concentration of 8 μg/mL per well, followed by incubation at room temperature for 3 hours to allow the antigen to be bound to the plate. The unbound antigens were removed by washing three times using phosphate buffered saline-Tween 20 (PBST), and then 300 μL of PBST supplemented with 5% bovine serum albumin (BSA) was added to each well, followed by incubation at room temperature for 1 hour and then washing using PBST. Then, an anti-CD300c monoclonal antibody was diluted in quadruplicate and added thereto, followed by incubation for 1 hour at room temperature for antigen binding. After 1 hour, washing was performed three times using PBST to remove unbound anti-CD300c monoclonal antibody, and then 4 μg/mL of an antibody for detection (HRP conjugated anti-Fc IgG) was added, followed by incubation again at room temperature for 1 hour. […] Then, 2 N sulfuric acid solution was added to terminate the development reaction, and the absorbance was measured at 450 nm to identify the antibodies specifically binding to the CD300c antigen.", "data": [{"molecule": "B1", "values": [{"measurement": "EC50", "value": 49.7, "unit": "µg/mL"}]}]}
